Reference: article PMC2735845

Biological target: RecQ;SSB113 (Escherichia coli;Escherichia coli, UniProt P15043;P0AGE0 1-609;2-178, |P177S)
Assay: EMSA

B1: 3'-OH partial duplex (o100/o30) (mixed)
DNA 1: GACGCTCGGTTCGTCTAGGACCGTCATTAGTATGTTGATATACATAGACCTTACCGCAGTGATTCGCTTGTCAGTCCATTGAAGCACAATTACCCACGC
DNA 2: CTAATGACGGTCCTAGACGAACCGAGCGTC
B1: binds.
